The target in experiment [1] is T1, GFP-Bak (UniProt Q16611 1-211).
T1 construct: also called pEGFP-Bak; not shown: EGFP from a pEGFP vector
T1 sequence (looked up): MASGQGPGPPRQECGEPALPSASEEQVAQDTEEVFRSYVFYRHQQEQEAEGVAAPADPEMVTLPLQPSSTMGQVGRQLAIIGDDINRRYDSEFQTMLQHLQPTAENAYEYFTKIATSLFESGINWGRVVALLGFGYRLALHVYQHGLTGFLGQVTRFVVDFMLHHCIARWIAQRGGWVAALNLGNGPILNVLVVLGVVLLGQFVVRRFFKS
Nature of the experiment: co-immunoprecipitation from transfected 293T cell lysates, immunoblot. Background: A western blot detects proteins with antibodies after separation by electrophoresis.

The target in experiment [2] is T2, Bax (UniProt Q07812 1-192, limits assumed).
T2 construct: also called pcDNA3-Bax
T2 sequence (Q07812 whole entry): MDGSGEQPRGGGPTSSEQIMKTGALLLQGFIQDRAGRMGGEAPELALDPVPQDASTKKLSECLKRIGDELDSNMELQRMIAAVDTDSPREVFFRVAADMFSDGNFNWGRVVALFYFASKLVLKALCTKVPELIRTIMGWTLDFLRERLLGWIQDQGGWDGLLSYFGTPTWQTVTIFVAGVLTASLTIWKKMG
Put plainly: co-immunoprecipitation with anti-Myc beads from HEK293T lysates, anti-Bax immunoblot (FIG. 4A). How it is done: 293T cells (5×10₆) cultured with 50 uM […]-Val-Ala-Asp-fluoromethylketone (ZVAD-fmk, Bachem) were co-transfected with 1.5 ug of pcDNA3-Myc-Bcl-B, pcl-Neo-Flag-Bcl-B, pcDNA3-hCBP (Human Calcyclin Binding Protein) (used as a control), or pcDNA3-Flag-BCI-XL, together with 1.5 ug of pEGFP, pEGFP-Bcl-B, pcDNA3-HA-BAG1, pcDNA3-HA-Bax, pcDNA3-Flag-Bcl-XL, pRC-CMV-Bcl-2 or pEGFP-Bak. At 24 hrs post-transfection, cells were collected and resuspended in lysis buffer (142.4 mM KCI, 5 mM MgCl₂, 10 MM HEPES (pH 7.4), 0.5 mM EGTA, 0.2% NP-40) containing 12.5 mM p-glycerophosphate, 2 mM NaF, 1 mM Na₃VO₄, 1 mM DTT, 1 mM PMSF and a protease inhibitor mixture (Boehringer Mannheim). Soluble lysates were incubated with 10 ul anti-Myc (Santa Cruz) or anti-Flag (Sigma) antibody conjugated Sepharose beads overnight at 4° C. Beads were washed four times in 1.5 ml lysis buffer, and boiled in Laemmli gel-loading solution before performing SDS-PAGE/immunoblotting. The following polyclonal or monoclonal antibodies were used: polyclonal rabbit anti-GFP (Roche), monoclonal rat anti-HA (Roche), monoclonal mouse anti-Flag (Sigma), monoclonal mouse anti-Myc (Santa Cruz), rabbit anti-huBcl—2, or rabbit anti-huBcl-XL (Krajewski, et al., Am. J. Pathol. 145, 515-525 (1994); Krajewski et al., Cancer Res. 54, 5501-5507 (1994)).
Binding studies confirmed that binding between Bcl-B and Bax mediates suppression of apoptosis by Bax. In brief, HEK293T cells were transiently transfected with several Myc-tagged constructs (human calcyclin-binding protein, wildtype Bcl-B, L86A, R96Q, FFR(169-171)AAA, Δ118-133) and cell lysates were prepared and immunoprecipitated with anti-Myc antibody conjugated to beads. Immunoprecipitates were subjected to SDS-PAGE/immunoblot analysis using rabbit polyclonal antibodies specific for Bax (FIG. 4A). To confirm expression of proteins, lysates were subject to immunoblot analysis using antibodies specific for Bax and Myc.

B1: Myc-Bcl-B (other, not shown: small tags and cut ends)
chain: MVDQLRERTTMADPLRERTELLLADYLGYCAREPGTPEPAPSTPEAAVLRSAAARLRQIHRSFFSAYLGYPGNRFELVALMADSVLSDSPGPTWGRVVTLVTFAGTLLERGPLVTARWKKWGFQPRLKEQEGDVARDCQRLVALLSSRLMGQHRAWLQAQGGWDGFCHFFRTPFPLAFWRKQLVQAFLSCLLTTAFIYLWTRLL
notes: Expressed in 293T cells and immunoprecipitated from lysates; also called wildtype Bcl-B; pcDNA3-Myc-Bcl-B
Turning to B1, in experiment [1], the binding result is given as “no binding”.

B2: Myc-Bcl-B R96Q (other, not shown: small tags and cut ends)
chain: MVDQLRERTTMADPLRERTELLLADYLGYCAREPGTPEPAPSTPEAAVLRSAAARLRQIHRSFFSAYLGYPGNRFELVALMADSVLSDSPGPTWGQVVTLVTFAGTLLERGPLVTARWKKWGFQPRLKEQEGDVARDCQRLVALLSSRLMGQHRAWLQAQGGWDGFCHFFRTPFPLAFWRKQLVQAFLSCLLTTAFIYLWTRLL
notes: Myc-tagged Bcl-B point mutant
With B2, the binding result in experiment [2] is “no binding”.

B3: Myc-Bcl-B L86A (other, not shown: small tags and cut ends)
chain: MVDQLRERTTMADPLRERTELLLADYLGYCAREPGTPEPAPSTPEAAVLRSAAARLRQIHRSFFSAYLGYPGNRFELVALMADSVASDSPGPTWGRVVTLVTFAGTLLERGPLVTARWKKWGFQPRLKEQEGDVARDCQRLVALLSSRLMGQHRAWLQAQGGWDGFCHFFRTPFPLAFWRKQLVQAFLSCLLTTAFIYLWTRLL
notes: Myc-tagged Bcl-B point mutant
For the molecule B3, the binding result in experiment [2] is given as “no binding”.

B4: Myc-Bcl-B deletion 118-133 (other, not shown: small tags and cut ends)
chain: MVDQLRERTTMADPLRERTELLLADYLGYCAREPGTPEPAPSTPEAAVLRSAAARLRQIHRSFFSAYLGYPGNRFELVALMADSVLSDSPGPTWGRVVTLVTFAGTLLERGPLVTARVARDCQRLVALLSSRLMGQHRAWLQAQGGWDGFCHFFRTPFPLAFWRKQLVQAFLSCLLTTAFIYLWTRLL
notes: also called (delta)118-133
In the case of B4, in experiment [2], the binding result is given as “no binding”.

For the origin of these results see patent US20030176671A1 (SANFORD BURNHAM MEDICAL RESEARCH INSTITUTE, published 2003).
